Laboratory results reported in patent US20250333501A1 (University of California, published 2025).

T1: CLDN6 endogenously expressed by human cancer cell lines (ARK2, OVCA429) (human, UniProt P56747 1-220)
T1 construct: Untagged endogenous protein; also called Endogenous CLDN6+
T1 sequence: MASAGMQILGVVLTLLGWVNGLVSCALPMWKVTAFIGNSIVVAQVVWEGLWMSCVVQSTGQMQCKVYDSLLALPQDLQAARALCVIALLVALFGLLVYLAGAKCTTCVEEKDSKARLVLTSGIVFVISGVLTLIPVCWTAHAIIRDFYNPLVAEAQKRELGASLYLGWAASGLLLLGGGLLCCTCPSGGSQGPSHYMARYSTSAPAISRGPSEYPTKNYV

T2: human CLDN6 fused to GFP, expressed on engineered HEK293T cells (HEK293T-CLDN6-mGFP) (human, UniProt P56747 1-220)
T2 construct: It calls residues 1-21 a signal peptide; also called Claudin-6; HEK293T-CLDN6-mGFP Artificial CLDN6+; not shown: mGFP tag
T2 sequence: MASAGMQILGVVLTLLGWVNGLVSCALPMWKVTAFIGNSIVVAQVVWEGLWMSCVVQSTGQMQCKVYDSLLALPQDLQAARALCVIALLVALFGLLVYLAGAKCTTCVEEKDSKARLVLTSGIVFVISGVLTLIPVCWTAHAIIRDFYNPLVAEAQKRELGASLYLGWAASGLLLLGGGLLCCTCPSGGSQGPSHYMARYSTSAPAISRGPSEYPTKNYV

T3: mouse CLDN6 fused to GFP, expressed on engineered HEK293T cells (mouse, UniProt Q9Z262 1-219)
T3 construct: whole, on cells; also called HEK293T-CLDN6-mGFP Artificial CLDN6+ (mouse); murine CLDN6; not shown: GFP tag
T3 sequence (looked up): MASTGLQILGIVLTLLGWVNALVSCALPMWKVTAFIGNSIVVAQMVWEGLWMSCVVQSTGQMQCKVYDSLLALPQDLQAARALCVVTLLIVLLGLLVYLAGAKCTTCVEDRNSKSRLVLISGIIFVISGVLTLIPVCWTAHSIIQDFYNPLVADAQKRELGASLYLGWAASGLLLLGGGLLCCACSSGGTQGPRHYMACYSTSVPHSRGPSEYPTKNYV


What was measured:
[1] = biological target: T1, CLDN6 endogenously expressed by human …; experiment: FACS, AF647-labelled mAb, ARK2 cells
Description: (§1) Antibodies were purified and cell surface binding of the antibodies to CLDN6 and the antibody IC₅₀ were determined by FACS in which CLDN6 antibodies were directly conjugated with Alexa Fluor® 647 NHS Ester (Succinimidyl Ester), Cat #A20106 (ThermoFisher Scientific) following the manufacturer's protocol. CLDN6 antibodies were tested from 0.32 nM to 1000 nM (serial dilution 1:5, 6 points) in a 50 μl volume with 150,000 cells system.
(§2) CLDN6-expressing cells were used in FACS assays to determine the CLDN6 antibody's ability to bind to CLDN6 on the surface of cells and to cross-react with other CLDN family members. HEK293 T cells engineered to express human CLDN6 fused to GFP, mouse CLDN6 fused to GFP, CLDN9-GFP, CLDN4-GFP, or CLDN3-GFP, or GFP alone (without CLDN6) were used as artificial models of CLDN6 expression. ARK2, OVCA429, LS513 and MCF7 cells were used as endogenous models of CLDN6 expression, as well as models for CLDN3/4 expression.
(§3) For each type of cell tested and for each mAb, cells were detached from the surface of the culture flasks by EDTA (instead of trypsin) in order to protect the cell surface proteins. The detached cells were then incubated with Alexa Fluor®-labeled CLDN6 mAbs for 30 min in the dark on ice at a pre-determined concentration. The CLDN6 mAbs were directly labeled with Alexa Fluor® 647 NHS Ester (Succinimidyl Ester). After washing, the cells were read by a BD Accuri™ Flow Cytometer C6 to detect antibody-antigen protein binding in channel FL4H. Each antibody was tested at varied concentrations to establish a dose-fluorescence curve. The EC50/IC50 of the antibodies (the concentration of the antibody at which half the max value were calculated based on the values of FL4H (gated in viable singlet cells) using the Very Simple IC50 Tool kit available online which allows biological dose-response data to be plotted and fitted to curve types to give the EC50/IC50. The max value was the lowest concentration of the antibody at which fluorescence maxes out. The antibodies were also screened for their ability to cross-react with other CLDN proteins such as CLDN9, CLDN3, and CLDN4. These values were used to determine each antibody's relative affinity among the set of antibodies tested. Cross-reactivity data were obtained using a similar methodology, but with cells having a different expression profile for CLDN6, CLDN3, CLDN4 and CLDN9.

[2] = biological target: T1, CLDN6 endogenously expressed by human …; experiment: FACS, AF647-labelled mAb, OVCA429 cells
Description: as §1, §2, §3

[3] = biological target: T2, human CLDN6 fused to GFP, expressed on …; experiment: FACS, AF647-labelled mAb, HEK293T-CLDN6-mGFP cells
Description: as §1, §2, §3

[4] = biological target: T1, CLDN6 endogenously expressed by human …; experiment: FACS, 0.3 µg Ab, ARK2 cells
Description: (§4) FACS assays were also carried out to determine relative antigen binding strengths of the humanized antibodies (at either 1.5 μg or 0.3 μg) for binding to CLDN6 as expressed by the indicated cancer cell lines. 2nd Ab only was used as a negative control.

[5] = biological target: T1, CLDN6 endogenously expressed by human …; experiment: FACS, 1.5 µg Ab, ARK2 cells
Description: as §4

[6] = biological target: T1, CLDN6 endogenously expressed by human …; experiment: FACS, 1.5 µg Ab, OVCA429 cells
[7] = biological target: T2, human CLDN6 fused to GFP, expressed on …; experiment: FACS, 0.3 µg Ab, 293T clone with human CLDN6
In short: (§5)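 Engineered 293T clones expressing human CLDN6 were detached with EDTA and incubated with Alexa Fluor 647 NHS ester-labelled humanized antibody, at 0.3 µg or 1.5 µg, for 30 min on ice in the dark. After washing, the cells were read by flow cytometry on a BD Accuri C6 in channel FL4H. Fluorescence in this direct-binding assay reflects relative antigen binding strength.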

[8] = biological target: T2, human CLDN6 fused to GFP, expressed on …; experiment: FACS, 1.5 µg Ab, 293T clone with human CLDN6
In short: as §5

[9] = biological target: T3, mouse CLDN6 fused to GFP, expressed on …; experiment: FACS, 293T clone with mouse CLDN6, dose not given
Description: Humanized antibodies described in Table 8 were constructed and expressed as essentially described in Example 5. FACS assays were carried out as essentially described in Example 5 to determine relative antigen binding strengths of the humanized antibodies. Two doses (1.5 μg or 0.3 μg) of the humanized antibodies were tested for binding to either human CLDN6 or murine CLDN6 which proteins were expressed by engineered 293T clones.

Row | Binder | EC50 [1] [nM] | EC50 [2] [nM] | EC50 [3] [nM] | FACS fluorescence [4] | FACS fluorescence [5] | FACS fluorescence [6] | FACS fluorescence [7] | FACS fluorescence [8] | FACS fluorescence [9]
1 | AB11 (antibody, V domains shown, Labelled with Alexa Fluor 647 NHS ester for FACS) VH: DVQLVESGGGLVQPRGSRKLSCAASGFTFSSFGMHWVRQAPEKGLEWVAYISSDSRTIYYADTVKGRFTISRDNPTNTLFLQMTSLRSEDTAMYYCARDYGRTYEAYWGQGTLVTVSA VL: DIVLTQSPASLAVSLGQRATISCRASKSVSTSGYSYIHWYQQKPGQPPKLLIYLASNLESGVPARFSGSGSGTDFTLNIHPVEEEDAATYYCQHSRELPLTFGAGTKLELK | 363 | 835 | 1700 | – | – | – | – | – | –
2 | AB4-chim (antibody, V domains shown, 'chim' is the pre-humanized form (parental variable regions); also called pre-humanized (chimeric) form of AB4) VH: QVQLQQSGAELARPGASVKMSCKASGYTFTSYTMHWIKQRPGQGQEWIGYINPSSTYTHYIKKFKDKATLTADKSSSTAYMQLRSLTSEDSAVYYCSRGELGGFAYWGQGTLVTVSA VL: DVVMTQTPLSLPVSLGDQASISCRSSQSLVHSDGNTYLNWYLQKPGQSPKLLIYKVSNRFSGVPDRFSGSGSGTDFTLKIRRVEAEDLGVYFCSQSTHVPYTFGGGTKLEIK | – | – | – | 19100 | 38400 | 64800 | 176000 | 327000 | 3640
3 | AB18 (antibody, V domains shown, Labelled with Alexa Fluor 647 NHS ester for FACS) VH: QVQLKQSGPELEKPGASVKISCKASGYSFTGYNMNWVKQSNGKSLEWIGNIDPYYGGSTYNQKFTGKATLTVDKSSSTAYMQLKSLTSEDSAVYYCARERSGYVFSAMDYWGQGTSVTVSS VL: NIMMTQSPSSLAVSAGEKVTMSCKSSQSVLFSSNQKNYLAWYQQKPGQSPRLLIYWASTRESGVPDRFTGSGSGTDFTLTISNVQAEDLAVYYCHQYLSSRTFGAGTKLELK | 1350 | 2440 | ≥ 5000 | – | – | – | – | – | –
4 | AB12 (antibody, V domains shown, Labelled with Alexa Fluor 647 NHS ester for FACS) VH: EVKLMESGGDLVKPGGSLKLSCAASGFTFSSYAMSWVRQTPEKRLEWVASIRSGGTTYYPDSVKGRFTISRDNARNILYLRMSSLRSEDTAIYYCAKVGGNPYPMDYWGQGTSVTVSS VL: DIQMIQSPSSMFASLGDRVSLSCRASQDIGGNLDWYQQKPGGTIKLLIYSTSNLNSGVPSRFSGSGSGSDYSLTITSLESEDFADYYCLQRNAYPLTFGAGTKLELK | 1300 | 2290 | ≥ 5000 | – | – | – | – | – | –
5 | AB13 (antibody, V domains shown, Labelled with Alexa Fluor 647 NHS ester for FACS) VH: QVQLQQSGAELVRPGTSVKVSCKASGYAFSNYLIEWVKQRPGQGLEWIGVINPGSGGTNYNEKFKGKATMTADKSSSTAYMHLSNLTSEDSVVYFCARSYFGRSYPYTMDYWGQGTSVTVSS VL: EIVLTQSPTTMAASPGEKITITCSASSSISSNYLHWYQQKPGFSPKLLIYRTSNLASGVPARFSGSGSGTSYSLTIGTMEAEDVATYYCQQGSSIPLTFGAGTKLELK | 1150 | 2290 | ≥ 5000 | – | – | – | – | – | –
6 | AB14 (antibody, V domains shown, Labelled with Alexa Fluor 647 NHS ester for FACS) VH: QVQLQQSGPELVRPGVSVKISCKGSGYTFTDYAMHWVKQSHAKSLEWIGVISTYSGNTNYNQKFQDKATMTVDKSSSTAYMALARLTSDDSAIYYCARRGDYSLYAMDYWGQGTSVTVSS VL: DIVLTQSPASLAVSLGQRATISCKASQSVDYDGDNYVNWYQQKVGQPPKLLISAASNLESGIPARFSGSGSGTDFTLNIHPVEEEDAATYYCQQSNEDPFTFGSGTKLEIK | 1300 | 1660 | ≥ 5000 | – | – | – | – | – | –
